The experiment addresses human FGFR1c + KLB receptor complex on HEK293 iLite FGF21 reporter cells (human, UniProt P11362 22-822; Q86Z14 1-1044). The experiment is described as follows: cell-based or functional assay.

Sequence of human FGFR1c + KLB receptor complex on HEK293 iLite FGF21 reporter cells (P11362 22-822, chain 1 of 2): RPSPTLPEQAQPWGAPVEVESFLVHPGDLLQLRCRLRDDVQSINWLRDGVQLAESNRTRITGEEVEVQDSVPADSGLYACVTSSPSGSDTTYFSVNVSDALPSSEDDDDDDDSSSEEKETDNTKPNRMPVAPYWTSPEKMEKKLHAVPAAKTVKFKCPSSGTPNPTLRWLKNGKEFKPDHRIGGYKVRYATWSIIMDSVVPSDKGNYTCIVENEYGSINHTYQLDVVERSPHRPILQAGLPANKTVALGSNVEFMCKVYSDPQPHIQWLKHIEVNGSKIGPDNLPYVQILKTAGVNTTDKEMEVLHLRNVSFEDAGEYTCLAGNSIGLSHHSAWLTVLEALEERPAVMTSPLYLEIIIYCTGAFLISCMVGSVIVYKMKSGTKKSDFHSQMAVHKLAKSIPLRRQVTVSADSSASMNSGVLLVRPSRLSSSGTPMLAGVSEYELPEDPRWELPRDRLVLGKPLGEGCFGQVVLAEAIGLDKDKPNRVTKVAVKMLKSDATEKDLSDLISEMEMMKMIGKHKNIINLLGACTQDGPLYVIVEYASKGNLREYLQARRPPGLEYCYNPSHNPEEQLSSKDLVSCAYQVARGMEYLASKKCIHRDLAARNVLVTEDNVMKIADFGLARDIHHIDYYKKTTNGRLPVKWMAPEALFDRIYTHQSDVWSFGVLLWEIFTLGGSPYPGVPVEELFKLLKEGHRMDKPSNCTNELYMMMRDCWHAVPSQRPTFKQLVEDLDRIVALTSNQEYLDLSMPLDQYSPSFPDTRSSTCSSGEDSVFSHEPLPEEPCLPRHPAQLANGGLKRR
Sequence of human FGFR1c + KLB receptor complex on HEK293 iLite FGF21 reporter cells (Q86Z14 whole entry, chain 2 of 2): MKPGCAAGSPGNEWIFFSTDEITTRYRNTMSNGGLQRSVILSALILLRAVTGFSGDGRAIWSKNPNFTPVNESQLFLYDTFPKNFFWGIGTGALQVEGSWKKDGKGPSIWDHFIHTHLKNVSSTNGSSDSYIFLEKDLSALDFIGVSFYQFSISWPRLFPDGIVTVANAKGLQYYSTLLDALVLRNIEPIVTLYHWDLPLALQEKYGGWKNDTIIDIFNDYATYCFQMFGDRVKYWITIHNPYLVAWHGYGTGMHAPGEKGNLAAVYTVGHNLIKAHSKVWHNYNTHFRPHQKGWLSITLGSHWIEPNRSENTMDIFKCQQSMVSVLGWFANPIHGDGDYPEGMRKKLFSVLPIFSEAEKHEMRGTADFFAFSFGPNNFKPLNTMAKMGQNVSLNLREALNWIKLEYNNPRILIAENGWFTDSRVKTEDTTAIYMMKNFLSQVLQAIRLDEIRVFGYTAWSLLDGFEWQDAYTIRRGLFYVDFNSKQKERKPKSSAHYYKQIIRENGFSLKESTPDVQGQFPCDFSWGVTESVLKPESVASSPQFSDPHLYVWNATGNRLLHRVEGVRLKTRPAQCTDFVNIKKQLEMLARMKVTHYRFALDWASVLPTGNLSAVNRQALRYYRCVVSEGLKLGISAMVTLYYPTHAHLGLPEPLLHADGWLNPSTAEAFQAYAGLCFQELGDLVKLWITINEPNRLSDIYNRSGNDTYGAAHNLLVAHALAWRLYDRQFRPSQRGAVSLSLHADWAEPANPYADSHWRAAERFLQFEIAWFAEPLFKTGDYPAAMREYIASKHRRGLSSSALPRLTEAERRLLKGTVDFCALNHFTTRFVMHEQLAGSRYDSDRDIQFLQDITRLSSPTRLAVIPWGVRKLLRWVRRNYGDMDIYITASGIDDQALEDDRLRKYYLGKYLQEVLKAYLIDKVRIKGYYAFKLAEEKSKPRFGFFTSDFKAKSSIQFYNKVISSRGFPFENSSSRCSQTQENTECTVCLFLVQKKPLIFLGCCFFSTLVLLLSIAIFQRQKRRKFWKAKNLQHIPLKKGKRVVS

B1: Ab0185 (antibody, IgG4, V domains shown)
VH: not shown
VL: SYVLTQPPSVSVAPGQTARITCGGNNIGSESVHWYQQKPGQAPVLVVYDDSDRPSGIPERFSGSNSGNTATLTISRVEAGDEADYYCQVWDGNSEHVVFGGGTKLTVLG
Regarding B1, the EC50 – broadly, the concentration that produces a half-maximal response – came out at 0.06 nM and the Emax – broadly, the maximal effect, on the per cent scale that the assay sets – was determined as 2350%.

B2: Ab0315 (antibody, IgG4, V domains shown)
VH: QVTLKESGPVLVKPTETLTLTCTVSGFSLNNARVGVSWIRQPPGKALEWLAHIFSNDEKSYSTSLKSRLTISKDTSKSQVVLTMTNMDPVDTATYYCARSVVTGGYYYEGMDVWGQGTTVTVSS
VL: SYVLTQPPSVSVAPGQTARITCGGNNIGSESVHWYQQKPGQAPVLVVYYDSDRPSGIPERFSGSNSGNTATLTISRVEAGDEADYYCQVWTGESDHVVFGGGTKLTVLG
Take B2: the EC50 came out at 0.37 nM and the Emax was 806%.

B3: Ab0317 (antibody, IgG4, V domains shown)
VH: QVTLKESGPVLVKPTETLTLTCTVSGFSLNNARVGVSWIRQPPGKALEWLAHIFSNDEKSYSTSLKSRLTISKDTSKSQVVLTMTNMDPVDTATYYCARSVVTGGYYYEGMDVWGQGTTVTVSS
VL: SYVLTQPPSVSVAPGQTARITCGGNNIGSESVHWYQQKPGQAPVLVVYDESDRPSGIPERFSGSNSGNTATLTISRVEAGDEADYYCQVWTGESDHVVFGGGTKLTVLG
With B3, the EC50 was 0.17 nM and the Emax worked out at 968%.

B4: Ab0313 (antibody, IgG4, V domains shown)
VH: QVTLKESGPVLVKPTETLTLTCTVSGFSLNNARVGVSWIRQPPGKALEWLAHIFSNDEKSYSTSLKSRLTISKDTSKSQVVLTMTNMDPVDTATYYCARSVVTGGYYYEGMDVWGQGTTVTVSS
VL: SYVLTQPPSVSVAPGQTARITCGGNNIGSESVHWYQQKPGQAPVLVVYDDSDRPSGIPERFSGSNSGNTATLTISRVEAGDEADYYCQVWTGESDHVVFGGGTKLTVLG
Turning to B4, the EC50 was determined as 0.04 nM and the Emax stood at 1130%.

B5: Ab0303 (antibody, IgG4, V domains shown)
VH: QVTLKESGPVLVKPTETLTLTCTVSGFSLNNARVGVSWIRQPPGKALEWLAHIFSNDEKSYSTSLKSRLTISKDTSKSQVVLTMTNMDPVDTATYYCARSVVTGGYYYEGMDVWGQGTTVTVSS
VL: SYVLTQPPSVSVAPGQTARITCGGSNIGSESVHWYQQKPGQAPVLVVYDESDRPSGIPERFSGSNSGNTATLTISRVEAGDEADYYCQVWTGNSDHVVFGGGTKLTVLG
For B5, the EC50 came out at 19.2 nM and the Emax came to 809%.

B6: Ab0305 (antibody, IgG4, V domains shown)
VH: QVTLKESGPVLVKPTETLTLTCTVSGFSLNNARVGVSWIRQPPGKALEWLAHIFSNDEKSYSTSLKSRLTISKDTSKSQVVLTMTNMDPVDTATYYCARSVVTGGYYYEGMDVWGQGTTVTVSS
VL: SYVLTQPPSVSVAPGQTARITCGGSNIGSESVHWYQQKPGQAPVLVVYYESDRPSGIPERFSGSNSGNTATLTISRVEAGDEADYYCQVWTGNSDHVVFGGGTKLTVLG
As to B6, the EC50 is 208 nM and the Emax stood at 647%.

B7: Ab0320 (antibody, IgG4, V domains shown)
VH: QVTLKESGPVLVKPTETLTLTCTVSGFSLNNARVGVSWIRQPPGKALEWLAHIFSNDEKSYSTSLKSRLTISKDTSKSQVVLTMTNMDPVDTATYYCARSVVTGGYYYEGMDVWGQGTTVTVSS
VL: SYVLTQPPSVSVAPGQTARITCGGSNIGSESVHWYQQKPGQAPVLVVYYESDRPSGIPERFSGSNSGNTATLTISRVEAGDEADYYCQVWTGESDHVVFGGGTKLTVLG
As to B7, the EC50 was determined as 1.29 nM and the Emax amounted to 699%.

B8: Ab0304 (antibody, IgG4, V domains shown)
VH: QVTLKESGPVLVKPTETLTLTCTVSGFSLNNARVGVSWIRQPPGKALEWLAHIFSNDEKSYSTSLKSRLTISKDTSKSQVVLTMTNMDPVDTATYYCARSVVTGGYYYEGMDVWGQGTTVTVSS
VL: SYVLTQPPSVSVAPGQTARITCGGNNIGSESVHWYQQKPGQAPVLVVYYESDRPSGIPERFSGSNSGNTATLTISRVEAGDEADYYCQVWTGNSDHVVFGGGTKLTVLG
Consider B8, for which the EC50 is 11.4 nM and the Emax was 686%.

B9: Ab0319 (antibody, IgG4, V domains shown)
VH: QVTLKESGPVLVKPTETLTLTCTVSGFSLNNARVGVSWIRQPPGKALEWLAHIFSNDEKSYSTSLKSRLTISKDTSKSQVVLTMTNMDPVDTATYYCARSVVTGGYYYEGMDVWGQGTTVTVSS
VL: SYVLTQPPSVSVAPGQTARITCGGNNIGSESVHWYQQKPGQAPVLVVYYESDRPSGIPERFSGSNSGNTATLTISRVEAGDEADYYCQVWTGESDHVVFGGGTKLTVLG
As for B9, the EC50 was found to be 0.3 nM and the Emax was 698%.

B10: Ab0238 (antibody, IgG4, V domains shown)
VH: not shown
VL: SYVLTQPPSVSVAPGQTARITCGGNNIGSESVHWYQQKPGQAPVLVVYDDSDRPSGIPERFSGSNSGNTATLTISRVEAGDEADYYCQVWDGNSSHVVFGGGTKLTVLG
In the case of B10, the Emax was 856%.

B11: Ab0302 (antibody, IgG4, V domains shown)
VH: QVTLKESGPVLVKPTETLTLTCTVSGFSLNNARVGVSWIRQPPGKALEWLAHIFSNDEKSYSTSLKSRLTISKDTSKSQVVLTMTNMDPVDTATYYCARSVVTGGYYYEGMDVWGQGTTVTVSS
VL: SYVLTQPPSVSVAPGQTARITCGGNNIGSESVHWYQQKPGQAPVLVVYDESDRPSGIPERFSGSNSGNTATLTISRVEAGDEADYYCQVWTGNSDHVVFGGGTKLTVLG
Take B11: the EC50 is 3.94 nM and the Emax amounted to 795%.

B12: Ab0318 (antibody, IgG4, V domains shown)
VH: QVTLKESGPVLVKPTETLTLTCTVSGFSLNNARVGVSWIRQPPGKALEWLAHIFSNDEKSYSTSLKSRLTISKDTSKSQVVLTMTNMDPVDTATYYCARSVVTGGYYYEGMDVWGQGTTVTVSS
VL: SYVLTQPPSVSVAPGQTARITCGGSNIGSESVHWYQQKPGQAPVLVVYDESDRPSGIPERFSGSNSGNTATLTISRVEAGDEADYYCQVWTGESDHVVFGGGTKLTVLG
Turning to B12, the EC50 was 0.3 nM and the Emax came to 817%.

B13: Ab0316 (antibody, IgG4, V domains shown)
VH: QVTLKESGPVLVKPTETLTLTCTVSGFSLNNARVGVSWIRQPPGKALEWLAHIFSNDEKSYSTSLKSRLTISKDTSKSQVVLTMTNMDPVDTATYYCARSVVTGGYYYEGMDVWGQGTTVTVSS
VL: SYVLTQPPSVSVAPGQTARITCGGSNIGSESVHWYQQKPGQAPVLVVYYDSDRPSGIPERFSGSNSGNTATLTISRVEAGDEADYYCQVWTGESDHVVFGGGTKLTVLG
On to B13, for which the EC50 came out at 0.45 nM and the Emax was found to be 730%.

B14: Ab0300 (antibody, IgG4, V domains shown)
VH: QVTLKESGPVLVKPTETLTLTCTVSGFSLNNARVGVSWIRQPPGKALEWLAHIFSNDEKSYSTSLKSRLTISKDTSKSQVVLTMTNMDPVDTATYYCARSVVTGGYYYEGMDVWGQGTTVTVSS
VL: SYVLTQPPSVSVAPGQTARITCGGNNIGSESVHWYQQKPGQAPVLVVYYDSDRPSGIPERFSGSNSGNTATLTISRVEAGDEADYYCQVWTGNSDHVVFGGGTKLTVLG
As to B14, the EC50 came to 2.63 nM and the Emax was determined as 605%.

B15: Ab0299 (antibody, IgG4, V domains shown)
VH: QVTLKESGPVLVKPTETLTLTCTVSGFSLNNARVGVSWIRQPPGKALEWLAHIFSNDEKSYSTSLKSRLTISKDTSKSQVVLTMTNMDPVDTATYYCARSVVTGGYYYEGMDVWGQGTTVTVSS
VL: SYVLTQPPSVSVAPGQTARITCGGSNIGSESVHWYQQKPGQAPVLVVYDDSDRPSGIPERFSGSNSGNTATLTISRVEAGDEADYYCQVWTGNSDHVVFGGGTKLTVLG
For the molecule B15, the EC50 was 0.1 nM and the Emax was 1240%.

B16: Ab0237 (antibody, IgG4, V domains shown)
VH: not shown
VL: SYVLTQPPSVSVAPGQTARITCGGNNIGSESVHWYQQKPGQAPVLVVYDDSDRPSGIPERFSGSNSGNTATLTISRVEAGDEADYYCQVWDGNSAHVVFGGGTKLTVLG
For B16, the EC50 is > 100 nM and the Emax was 667%.

B17: Ab0301 (antibody, IgG4, V domains shown)
VH: QVTLKESGPVLVKPTETLTLTCTVSGFSLNNARVGVSWIRQPPGKALEWLAHIFSNDEKSYSTSLKSRLTISKDTSKSQVVLTMTNMDPVDTATYYCARSVVTGGYYYEGMDVWGQGTTVTVSS
VL: SYVLTQPPSVSVAPGQTARITCGGSNIGSESVHWYQQKPGQAPVLVVYYDSDRPSGIPERFSGSNSGNTATLTISRVEAGDEADYYCQVWTGNSDHVVFGGGTKLTVLG
Regarding B17, the half-maximal effective concentration (EC50) is 21.5 nM and the Emax is 697%.

B18: Ab0395 (antibody, IgG4, V domains shown)
VH: QVTLKESGPVLVKPTETLTLTCTVSGFSLNNARVGVSWIRQPPGKALEWLAHIWSNDEKSYSTSLKSRLTISKDTSKSQVVLTMTNMDPVDTATYYCARSVVTGGYYYEGMDVWGQGTTVTVSS
VL: SYVLTQPPSVSVAPGQTARITCGGNNIGSESVHWYQQKPGQAPVLVVDDSDRPSGIPERFSGSNSGNTATLTISRVEAGDEADYYCQVFDGNSAHVVFGGGTKLTVLG
Turning to B18, the EC50 was > 100 nM.

B19: Ab0372 (antibody, IgG4, V domains shown)
VH: QVTLKESGPVLVKPTETLTLTCTVSGFSLNNARVGVSWIRQPPGKALEWLAWIFSNDEKSYSTSLKSRLTISKDTSKSQVVLTMTNMDPVDTATYYCARSVVTGGYYYEGMDVWGQGTTVTVSS
VL: CYVLTQPPSVSVAPGQTARITCGGNNIGSESVHWYQQKPGQAPVLVVDDSDRPSGIPERFSGSNSGNTATLTISRVEAGDEADYYCQVHDGNCEHVVFGGGTKLTVLG
As to B19, the EC50 is > 100 nM.

B20: Ab0373 (antibody, IgG4, V domains shown)
VH: QVTLKESGPVLVKPTETLTLTCTVSGFSLNNARVGVSWIRQPPGKALEWLAWIFSNDEKSYSTSLKSRLTISKDTSKSQVVLTMTNMDPVDTATYYCARSVVTGGYYYEGMDVWGQGTTVTVSS
VL: SYVLTQPPSVSVAPGQTARITCGGNNIGSESVHWYQQKPGQAPVLVVDDSDRPSGIPERFSGSNSGNTATLTISRVEAGDEADYYCQVHDGNCECVVFGGGTKLTVLG
On to B20, for which the EC50 was > 100 nM.

B21: Ab0371 (antibody, IgG4, V domains shown)
VH: QVTLKESGPVLVKPTETLTLTCTVSGFSLNNARVGVSWIRQPPGKALEWLAWIFSNDEKSYSTSLKSRLTISKDTSKSQVVLTMTNMDPVDTATYYCARSVVTGGYYYEGMDVWGQGTTVTVSS
VL: SYVLTQPPSVSVAPGQTARITCGGNNIGSESVHWYQQKPGQAPVLVVDDSDRPSGIPERFSGSNSGNTATLTISRVEAGDEADYYCQVHDGNSEHVVFGGGTKLTVLG
As to B21, the EC50 is > 100 nM.

(Values after patent US20220010021A1 (Sanofi, published 2022).)
